Data as given in patent publication US20180335429.

How the values were obtained:
[1] = test system: MMP substrate, 5-FAM-GGPLGVRGKK(CPQ2)-PEG2-C, presented on the iron-oxide nanoparticle (ABN) surface
[2] = test system: T1, thrombin substrate, 5-FAM-GGfPRSGGGK(CPQ2)-PEG2-C, presented on the nanoparticle surface
T1 sequence: GGFPRSGGGKC

Chain of recombinant MMP-9 (Enzo Life Sciences) (chain, as listed by the source): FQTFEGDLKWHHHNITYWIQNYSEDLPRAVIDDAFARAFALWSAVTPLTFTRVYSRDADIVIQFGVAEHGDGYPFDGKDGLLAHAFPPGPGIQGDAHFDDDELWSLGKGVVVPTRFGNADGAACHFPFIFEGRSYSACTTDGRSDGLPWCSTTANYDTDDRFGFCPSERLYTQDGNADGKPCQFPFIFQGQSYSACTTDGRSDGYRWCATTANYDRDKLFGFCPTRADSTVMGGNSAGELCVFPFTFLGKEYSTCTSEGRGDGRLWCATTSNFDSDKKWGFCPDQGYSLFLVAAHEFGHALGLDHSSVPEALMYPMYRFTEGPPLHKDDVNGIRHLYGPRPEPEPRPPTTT

Row | Substance | cleavage velocity (V) at 6 µM substrate, high end over the tether lengths tested (0, 4, 24 and 114 PEG subunits) [1] | cleavage velocity (V) at 6 µM substrate, low end over the tether lengths tested (0, 4, 24 and 114 PEG subunits) [1] | fold change of cleavage with tether length at 6 µM substrate [1] | cleavage of the substrate at varying linker lengths [2] | cleavage velocity (V) at 6 µM substrate, long tether end [1] | cleavage velocity (V) at 6 µM substrate, short tether end [1]
1 | recombinant MMP-9 (Enzo Life Sciences) | cleavage velocity (V) increased from 0.24 to 0.96 nM s^-1 at 6 µM | cleavage velocity (V) increased from 0.24 to 0.96 nM s^-1 at 6 µM | MMP9 cleavage was found to increase 4-fold for 6 µM of substrate | – | – | –
2 | thrombin (Haematologic Technologies) | – | – | thrombin cleavage decreased 1-fold at the same substrate concentration | thrombin cleavage of a thrombin-selective substrate (fPRSGGG ...) was optimally presented at an intermediate length | V at 6 µM of substrate decreased from 0.29 to 0.01 nM s^-1 | V at 6 µM of substrate decreased from 0.29 to 0.01 nM s^-1
